Source: PMC12098869, “An mRNA-display derived cyclic peptide scaffold reveals the substrate binding interactions of an N-terminal cysteine oxidase” (Nature Communications, 2025)
Changes are numbered by the printed parent chain. Where “and” joins values, the source holds several entries; their conditions need not be identical. Identical values can stand only once. Each block holds one binder with its values, some of them ahead of it.

Legend:
Details in all cases: both partners purified
[1] = biological target: T1, ADO-F256A, biotinylated (pQE80L-Navi-ADO) (human, UniProt Q96SZ5 1-270, F256A, biotin on the Avi tag); assay: SPR; multi-cycle, equilibrium steady state affinity 1:1 binding model; biotinylated ADO or variant immobilised on a Biotin CAP chip (~2500-3000 RU), peptide injected; 4 °C; 20 mM HEPES pH 7.5, 500 mM NaCl, 10 mM DTT, 0.1% (v/v) tween-20; 50 μL/minute
T1 construct: Tag as in Dm1; source: E. coli Rosetta2(DE3), purified (Ni-NTA, SEC); not shown: Avi tag, N-terminal, kept; His6, N-terminal, kept
T1 sequence (looked up): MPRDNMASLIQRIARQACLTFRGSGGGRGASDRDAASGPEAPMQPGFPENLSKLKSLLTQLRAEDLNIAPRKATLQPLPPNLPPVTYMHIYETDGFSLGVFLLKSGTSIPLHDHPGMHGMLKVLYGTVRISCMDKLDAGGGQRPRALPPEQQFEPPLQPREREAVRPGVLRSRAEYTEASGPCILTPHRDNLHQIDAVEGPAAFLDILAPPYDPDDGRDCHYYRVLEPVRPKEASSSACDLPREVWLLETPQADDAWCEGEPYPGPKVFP
How it was run: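 Biotinylated full-length human ADO (wild type or engineered forms) was made in E. coli with a His tag, then purified by nickel affinity and gel filtration. It was captured on a Biotin CAP chip at about 2500–3000 RU in a Biacore T200, and peptides were flowed over it. The run was at 4 °C in HEPES pH 7.5 buffer with 500 mM NaCl, DTT and tween-20, at 50 μL/minute. Kd came from a 1:1 steady-state fit of multi-cycle equilibrium responses.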

[2] = biological target: T2, ADO-D206E, N-terminally His-tagged and biotinylated (human, UniProt Q96SZ5 1-270, D206E, biotin (biotinylated during expression)); assay: SPR; biotinylated ADO or ADO mutant immobilised on a Biotin CAP chip (~2500-3000 RU), substrate peptide injected; Biacore T200, 4 °C; 20 mM HEPES pH 7.5, 500 mM NaCl, 10 mM DTT, 0.1% tween-20; 50 µL/minute; multi-cycle or single-cycle mode not given; each cell is one of three independent measurements
T2 construct: 2-aminoethanethiol dioxygenase (ADO), human, UniProt Q96SZ5, full length, site-directed mutant; source: E. coli Rosetta2(DE3), purified (Ni-NTA, SEC); not shown: biotinylation tag (from the vector pQE80L-Navi), N-terminal, kept
T2 sequence (looked up): T1 sequence (looked up) with D206E, A256F

[3] = biological target: T3, ADO-Y212F, N-terminally His-tagged and biotinylated (human, UniProt Q96SZ5 1-270, Y212F, biotin (biotinylated during expression)); assay: as above
T3 construct: 2-aminoethanethiol dioxygenase (ADO), human, UniProt Q96SZ5, full length, site-directed mutant; source: E. coli Rosetta2(DE3), purified (Ni-NTA, SEC); not shown: biotinylation tag (from the vector pQE80L-Navi), N-terminal, kept
T3 sequence (looked up): T1 sequence (looked up) with Y212F, A256F

[4] = biological target: T4, ADO-Y212A, N-terminally His-tagged and biotinylated (human, UniProt Q96SZ5 1-270, Y212A, biotin (biotinylated during expression)); assay: as above
T4 construct: 2-aminoethanethiol dioxygenase (ADO), human, UniProt Q96SZ5, full length, site-directed mutant; source: E. coli Rosetta2(DE3), purified (Ni-NTA, SEC); not shown: biotinylation tag (from the vector pQE80L-Navi), N-terminal, kept
T4 sequence (looked up): T1 sequence (looked up) with Y212A, A256F

[5] = biological target: T5, ADO-C220A, N-terminally His-tagged and biotinylated (human, UniProt Q96SZ5 1-270, C220A, biotin (biotinylated during expression)); assay: as above
T5 construct: 2-aminoethanethiol dioxygenase (ADO), human, UniProt Q96SZ5, full length, site-directed mutant; source: E. coli Rosetta2(DE3), purified (Ni-NTA, SEC); not shown: biotinylation tag (from the vector pQE80L-Navi), N-terminal, kept
T5 sequence (looked up): T1 sequence (looked up) with C220A, A256F

Kd [1]: 0.87 µM
B1: IL32_(2-15), synthetic peptide corresponding to the methionine excised N-terminus of IL32, residues 2-15 (peptide, UniProt P24001 2-15, looked up)
peptide: CFPKVLSDDMKKLK
notes: Interleukin 32 (IL32), residues 2-15, N-terminal Cys; also called IL32 peptide; source: synthetic peptide

Kd [2]: 1.19 µM and 0.997 µM and 1.06 µM
Kd [3]: 19.9 µM and 24.5 µM and 29.2 µM
Kd [4]: 66.5 µM and 90.3 µM and 63.1 µM
Kd [5]: 0.96 µM and 1.12 µM and 1.31 µM
B2: RGS5(2-15), synthetic peptide corresponding to the methionine excised N-terminus of RGS5, residues 2 to 15 (peptide, UniProt O15539 2-15, looked up)
peptide: CKGLAALPHSCLER
notes: regulator of G-protein signalling 5 (RGS5), residues 2 to 15 (N-terminal Cys exposed); UniProt O15539 is printed for the full-length human protein; also called 14-mer RGS5; source: synthetic peptide
